The source of these data is patent US20160272683A1 (Novo Nordisk, published 2016).

Numbered stars: 1 amine (or outer) side, 2 acyl side, 3 side chain; on linkers, the order of the positions; unused ones are H or OH. Square brackets hold non-standard residues; d marks the D form. * marks the point of attachment. C20 diacid = O=C(O)CCCCCCCCCCCCCCCCCCC(=O)*; γGlu = O=C(O)[C@H](CCC(=O)[*:2])N[*:1]

The target of assay [1] is T1, human amylin receptor (amylin 3(a) receptor: human calcitonin receptor with RAMP-3) (human, UniProt P30988 25-474; O60896 24-148, limits assumed).
T1 construct: whole, on cells; Assay V: membranes of the Amylin 3(a)/CRE-luc BHK cells on SPA beads; also called hAmylin-R
T1 sequence (looked up) 1: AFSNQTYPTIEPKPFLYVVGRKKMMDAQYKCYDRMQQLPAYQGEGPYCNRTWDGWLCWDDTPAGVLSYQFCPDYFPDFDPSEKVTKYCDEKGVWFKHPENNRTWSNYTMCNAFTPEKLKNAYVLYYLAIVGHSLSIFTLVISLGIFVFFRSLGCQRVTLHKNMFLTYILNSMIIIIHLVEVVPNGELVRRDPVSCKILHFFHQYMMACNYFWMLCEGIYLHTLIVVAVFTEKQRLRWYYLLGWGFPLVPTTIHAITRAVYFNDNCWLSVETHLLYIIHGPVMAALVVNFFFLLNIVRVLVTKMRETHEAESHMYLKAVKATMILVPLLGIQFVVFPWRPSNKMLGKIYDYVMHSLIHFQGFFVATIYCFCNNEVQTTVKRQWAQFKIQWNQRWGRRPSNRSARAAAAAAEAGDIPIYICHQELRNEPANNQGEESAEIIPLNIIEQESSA
T1 sequence (looked up) 2: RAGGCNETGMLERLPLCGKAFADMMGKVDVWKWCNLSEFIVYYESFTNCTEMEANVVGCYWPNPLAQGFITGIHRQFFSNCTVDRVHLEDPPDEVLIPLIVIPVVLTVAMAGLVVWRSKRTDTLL
Kind of assay: SPA competition vs 125I-rat amylin, membranes with human CTR + RAMP-3 (Assay V). The protocol:
The binding assay was performed using scintillation proximity assay (SPA) beads (RPNQ0001) from PerkinElmer and cell membranes from the Amylin 3(a)/CRE-luc cells (as described in Assay (II)) were used. Membranes were prepared in the following way; the cells were rinsed with PBS and incubated with Versene for approximately 5 min before harvesting. The cells were flushed with PBS and the cell-suspension was centrifuged for 5 min at 1000 rpm. […] The resulting pellet was resuspended in buffer 2 and protein concentration was tested (BCA protein Assay, Pierce). The homogenate was kept cold during the whole procedure. The membranes were kept at −80° C. until use. The assay was performed in a 384 well Optiplate (PerkinElmer) in a total volume of 40 ul. Membranes were mixed with SPA beads. Final concentration of membranes 35 ng/μL final and SPA beads was 0.05 mg/well. Test-compounds were dissolved in DMSO and further diluted in assay buffer (50 mM Hepes, pH 7.4, 1 mM CaCl2, 5 mM MgCl2, 0.1% OA and 0.02% Tween20). […] Samples were analyzed on TopCounter™ (Packard). The IC₅₀ was calculated using (one site binding competition analysis) GraphPad Prism5 as a measure of receptor affinity.

Assay [2] addresses T2, human calcitonin receptor (human, UniProt P30988 25-474).
T2 construct: whole, on cells; Assay VII: membranes on SPA beads; also called hCT-R; hCTR
T2 sequence (looked up): T1 sequence (looked up) 1
Briefly: SPA competition vs 125I-calcitonin, membranes with human CTR (Assay VII). The protocol: The binding assay was performed using scintillation proximity assay (SPA) beads (RPNQ0001) from PerkinElmer® and cell membranes prepared from a BHK tk'ts 13 cell line was stably transfected with the human calcitonin receptor and a CRE-responsive luciferase reporter gene. Membranes were prepared in the following way; the cells were rinsed with PBS and incubated with Versene for approximately 5 min before harvesting. The cells were flushed with PBS and the cell-suspension was centrifuged for 5 min at 1000 rpm.
EDTA (pH 7.4, buffer 2). The resulting pellet was resuspended in buffer 2 and protein concentration was tested (BCA protein Assay, Pierce). The homogenate was kept cold during the whole procedure. The membranes were kept at −80° C. until use. Assay was performed in a 384 well Optiplate (PerkinElmer®) in a total volume of 40 ul. Membranes were mixed with SPA beads. Final concentration of membranes 35 ng/μL final and Final concentration of SPA beads was 0.05 mg/well. Test-compounds were dissolved in DMSO and further diluted in assay buffer (50 mM Hepes, pH 7.4, 1 mM CaCl2, 5 mM MgCl2, 0.1% OA and 0.02% Tween20). […] Samples were analyzed on TopCounter™ (Packard). The IC₅₀ was calculated using (one site binding competition analysis) GraphPad Prism5 as a measure of receptor affinity.

What is called IC50 is the midpoint of a concentration-inhibition curve.

B1: [N-terminal(C20 diacid-gGlu), des1, 9T, 21S, 23Y, 30S, 31G, 33Y]mimylin (peptide)
peptide: {C20 diacid-γGlu}-ASELSTATLGRLSAELHELSTYPRTETGSGSY-NH2
SMILES: CC(C)C[C@H](NC(=O)[C@H](CCCNC(=N)N)NC(=O)CNC(=O)[C@H](CC(C)C)NC(=O)[C@@H](NC(=O)[C@H](C)NC(=O)[C@@H](NC(=O)[C@H](CO)NC(=O)[C@H](CC(C)C)NC(=O)[C@H](CCC(=O)O)NC(=O)[C@H](CO)NC(=O)[C@H](C)NC(=O)CC[C@H](NC(=O)CCCCCCCCCCCCCCCCCCC(=O)O)C(=O)O)[C@@H](C)O)[C@@H](C)O)C(=O)N[C@@H](CO)C(=O)N[C@@H](C)C(=O)N[C@@H](CCC(=O)O)C(=O)N[C@@H](CC(C)C)C(=O)N[C@@H](Cc1c[nH]cn1)C(=O)N[C@@H](CCC(=O)O)C(=O)N[C@@H](CC(C)C)C(=O)N[C@@H](CO)C(=O)N[C@H](C(=O)N[C@@H](Cc1ccc(O)cc1)C(=O)N1CCC[C@H]1C(=O)N[C@@H](CCCNC(=N)N)C(=O)N[C@H](C(=O)N[C@@H](CCC(=O)O)C(=O)N[C@H](C(=O)NCC(=O)N[C@@H](CO)C(=O)NCC(=O)N[C@@H](CO)C(=O)N[C@@H](Cc1ccc(O)cc1)C(N)=O)[C@@H](C)O)[C@@H](C)O)[C@@H](C)O
notes: mimylin derivative; des1 = residue 1 deleted; also called Ex. #99; 99
As for B1, the IC50 was 0.159 nM in assay [1] and 0.154 nM in assay [2].

B2: [N-terminal(C20 diacid-gGlu), des1, 23Y, 30S, 31G, 32A]mimylin (peptide)
peptide: {C20 diacid-γGlu}-ASELSTAALGRLSAELHELATYPRTETGSGAP-NH2
SMILES: CC(C)C[C@H](NC(=O)[C@H](C)NC(=O)[C@H](C)NC(=O)[C@@H](NC(=O)[C@H](CO)NC(=O)[C@H](CC(C)C)NC(=O)[C@H](CCC(=O)O)NC(=O)[C@H](CO)NC(=O)[C@H](C)NC(=O)CC[C@H](NC(=O)CCCCCCCCCCCCCCCCCCC(=O)O)C(=O)O)[C@@H](C)O)C(=O)NCC(=O)N[C@@H](CCCNC(=N)N)C(=O)N[C@@H](CC(C)C)C(=O)N[C@@H](CO)C(=O)N[C@@H](C)C(=O)N[C@@H](CCC(=O)O)C(=O)N[C@@H](CC(C)C)C(=O)N[C@@H](Cc1c[nH]cn1)C(=O)N[C@@H](CCC(=O)O)C(=O)N[C@@H](CC(C)C)C(=O)N[C@@H](C)C(=O)N[C@H](C(=O)N[C@@H](Cc1ccc(O)cc1)C(=O)N1CCC[C@H]1C(=O)N[C@@H](CCCNC(=N)N)C(=O)N[C@H](C(=O)N[C@@H](CCC(=O)O)C(=O)N[C@H](C(=O)NCC(=O)N[C@@H](CO)C(=O)NCC(=O)N[C@@H](C)C(=O)N1CCC[C@H]1C(N)=O)[C@@H](C)O)[C@@H](C)O)[C@@H](C)O
notes: mimylin derivative; des1 = residue 1 deleted; also called Ex. #81; 81
B2: the IC50 was 0.141 nM in assay [1] and 0.102 nM in assay [2].

B3: [N-terminal(C20 diacid-gGlu), des1, 30S, 31G, 33H]mimylin (peptide)
peptide: {C20 diacid-γGlu}-ASELSTAALGRLSAELHELATLPRTETGSGSH-NH2
SMILES: CC(C)C[C@H](NC(=O)[C@H](C)NC(=O)[C@H](C)NC(=O)[C@@H](NC(=O)[C@H](CO)NC(=O)[C@H](CC(C)C)NC(=O)[C@H](CCC(=O)O)NC(=O)[C@H](CO)NC(=O)[C@H](C)NC(=O)CC[C@H](NC(=O)CCCCCCCCCCCCCCCCCCC(=O)O)C(=O)O)[C@@H](C)O)C(=O)NCC(=O)N[C@@H](CCCNC(=N)N)C(=O)N[C@@H](CC(C)C)C(=O)N[C@@H](CO)C(=O)N[C@@H](C)C(=O)N[C@@H](CCC(=O)O)C(=O)N[C@@H](CC(C)C)C(=O)N[C@@H](Cc1c[nH]cn1)C(=O)N[C@@H](CCC(=O)O)C(=O)N[C@@H](CC(C)C)C(=O)N[C@@H](C)C(=O)N[C@H](C(=O)N[C@@H](CC(C)C)C(=O)N1CCC[C@H]1C(=O)N[C@@H](CCCNC(=N)N)C(=O)N[C@H](C(=O)N[C@@H](CCC(=O)O)C(=O)N[C@H](C(=O)NCC(=O)N[C@@H](CO)C(=O)NCC(=O)N[C@@H](CO)C(=O)N[C@@H](Cc1c[nH]cn1)C(N)=O)[C@@H](C)O)[C@@H](C)O)[C@@H](C)O
notes: mimylin derivative; des1 = residue 1 deleted; also called Ex. #60; 60
Regarding B3, the IC50 in assay [1] amounted to 0.057 nM; in assay [2], 0.034 nM.

B4: [N-terminal(C20 diacid-gGlu), des1, 12H, 30S, 31G]mimylin (peptide)
peptide: {C20 diacid-γGlu}-ASELSTAALGHLSAELHELATLPRTETGSGSP-NH2
notes: mimylin derivative; also called Ex. #72; 72
Consider B4, for which the IC50 in assay [1] stood at 0.565 nM; in assay [2], 0.097 nM.

B5: [N-terminal(C20 diacid-gGlu), des1, 23Y, 30S, 31G]mimylin (peptide)
peptide: {C20 diacid-γGlu}-ASELSTAALGRLSAELHELATYPRTETGSGSP-NH2
SMILES: CC(C)C[C@H](NC(=O)[C@H](C)NC(=O)[C@H](C)NC(=O)[C@@H](NC(=O)[C@H](CO)NC(=O)[C@H](CC(C)C)NC(=O)[C@H](CCC(=O)O)NC(=O)[C@H](CO)NC(=O)[C@H](C)NC(=O)CC[C@H](NC(=O)CCCCCCCCCCCCCCCCCCC(=O)O)C(=O)O)[C@@H](C)O)C(=O)NCC(=O)N[C@@H](CCCNC(=N)N)C(=O)N[C@@H](CC(C)C)C(=O)N[C@@H](CO)C(=O)N[C@@H](C)C(=O)N[C@@H](CCC(=O)O)C(=O)N[C@@H](CC(C)C)C(=O)N[C@@H](Cc1c[nH]cn1)C(=O)N[C@@H](CCC(=O)O)C(=O)N[C@@H](CC(C)C)C(=O)N[C@@H](C)C(=O)N[C@H](C(=O)N[C@@H](Cc1ccc(O)cc1)C(=O)N1CCC[C@H]1C(=O)N[C@@H](CCCNC(=N)N)C(=O)N[C@H](C(=O)N[C@@H](CCC(=O)O)C(=O)N[C@H](C(=O)NCC(=O)N[C@@H](CO)C(=O)NCC(=O)N[C@@H](CO)C(=O)N1CCC[C@H]1C(N)=O)[C@@H](C)O)[C@@H](C)O)[C@@H](C)O
notes: mimylin derivative; des1 = residue 1 deleted; also called Ex. #56; 56
Consider B5, for which the figures for the IC50 in assay [1] and in assay [2] were 0.394 nM and 0.07 nM, respectively.

B6: [N-terminal(C20 diacid-gGlu), des1, 15e, 30S, 31G]mimylin (peptide)
peptide: {C20 diacid-γGlu}-ASELSTAALGRLS[dE]ELHELATLPRTETGSGSP-NH2
SMILES: CC(C)C[C@H](NC(=O)[C@H](C)NC(=O)[C@H](C)NC(=O)[C@@H](NC(=O)[C@H](CO)NC(=O)[C@H](CC(C)C)NC(=O)[C@H](CCC(=O)O)NC(=O)[C@H](CO)NC(=O)[C@H](C)NC(=O)CC[C@H](NC(=O)CCCCCCCCCCCCCCCCCCC(=O)O)C(=O)O)[C@@H](C)O)C(=O)NCC(=O)N[C@@H](CCCNC(=N)N)C(=O)N[C@@H](CC(C)C)C(=O)N[C@@H](CO)C(=O)N[C@H](CCC(=O)O)C(=O)N[C@@H](CCC(=O)O)C(=O)N[C@@H](CC(C)C)C(=O)N[C@@H](Cc1c[nH]cn1)C(=O)N[C@@H](CCC(=O)O)C(=O)N[C@@H](CC(C)C)C(=O)N[C@@H](C)C(=O)N[C@H](C(=O)N[C@@H](CC(C)C)C(=O)N1CCC[C@H]1C(=O)N[C@@H](CCCNC(=N)N)C(=O)N[C@H](C(=O)N[C@@H](CCC(=O)O)C(=O)N[C@H](C(=O)NCC(=O)N[C@@H](CO)C(=O)NCC(=O)N[C@@H](CO)C(=O)N1CCC[C@H]1C(N)=O)[C@@H](C)O)[C@@H](C)O)[C@@H](C)O
notes: mimylin derivative; des1 = residue 1 deleted; lower case e = D-form of Glu; also called Ex. #67; 67
With B6, the IC50 worked out at 0.029 nM in assay [1] and 0.022 nM in assay [2].
